# Reference: the DeepSol protein solubility set
# Assay: soluble on expression in E. coli; label from the status in PepcDB or PDB records
row,Sequence,soluble on expression in E. coli
1,MKFRQKHEDFIVNEILEYELNDYGNYFLYKLQKNGIENLKAISYLSKNFEVPTKEIGYCGLKDRHAITTQYVSIPKEYGKLSLDEDNLKLEYVGTIEKPLKIGRLYGNRFEIIARAVDKDEFLKIADNIRNLSSGAPNYYDDQRFGSVFNGKFIAKEILKGNYEEVVKILLTSYTKSEKKQLKDLKRFIAKNWGNWDECLEYIDKKQIRSKMFRNMVKSLTYENDFKKAFKYVDNRLKELFISAYQSYLWNECLKEFLKEVIPKENRIYVDYSCGTFLFYENIEEELFDKLKEMDFPTIVSDVEYTDPEKRIIKAILKKERIKISDFEKLDFGKLKYTKRPIISIPEDVNTGKFKSDELNSKKYKIDLEFSLKKGSYATIILKRVFNILLEHHHHHH,soluble
2,MKFTSLLTAGALASTLVSPAIMAADTASASLSDAQKKEIEKVIHDYLINNPEVLLEASQALQQKQQQNMQQQAQAAIQENAEQVFQGKLTTVGNPKGNVTLVEFFDYQCIHCKKMASTIENLVKKDSGLRVIYKEFPIFGKTSDLASRVALAAGMQGKYQAMHNALITIDKRLDEKTVMDAAKSIGLDMQKLKKDMDSQEVTDILDANRQLAEKLHLMGTPAFIIGSTPDGQYKKGSEISFIPGATSEQSLRELIKKAAGN,not soluble
3,MKFVNFDEYKQLVDYFRNRLNPNYSSPTMLFIISITGMRASEAFGLVWDDIDFNNNTIKCRRTWNYRNKVGGFKKPKTDAGIRDIVIDDESMQLLKDFREQQKTLFESLGIKPIHDFVCYHPYRKIITLSALQNTLDHALKKLNISTPLTVHGLRHTHASVLLYHGVDIMTVSKRLGHASVAITQQTYIHIIKELENKDKDKIIELLMELLEHHHHHH,soluble
4,MKGLYFQQSSTDEEITFVFQEKEDLPVTEDNFVKLQVKACALSQINTKLLAEMKMKKDLFPVGREIAGIVLDVGSKVSFFQPDDEVVGILPLDSEDPGLCEVVRVHEHYLVHKPEKVTWTEAAGSIRDGVRAYTALHYLSHLSPGKSVLIMDGASAFGTIAIQLAHHRGAKVISTACSLEDKQCLERFRPPIARVIDVSNGKVHVAESCLEETGGLGVDIVLDAGVRLYSKDDEPAVKLQLLPHKHDIITLLGVGGHWVTTEENLQLDPPDSHCLFLKGATLAFLNDEVWNLSNVQQGKYLCILKDVMEKLSTGVFRPQLDEPIPLYEAKVSMEAVQKNQGRKKQVVQF,soluble
5,MKGVHHRPHEAVPTWACGWGVATTEHMAVSRRKHFSSICLHAQGSSRLPVLSTGTAVSELLRTSLCQVVELGPSPYLSLVPTVLLTVQHLGALAWGWRPW,soluble
6,MKHEWRKFEKELYGVKAKPIFLEVEEQRFITIKGKGNPNDQDFSNRVSALYALAYGIKMAYKQAMKTEQDDRAVTDFAVYPLEGLWQQAKDAKEDTLEKDKLSYTIMIRQPEFITKELVDQALDRVKIKKPNSFYESISFESIKDGKCIQVLHIGSYDDEPQSFAKMDAFAKEHGLKRSSDIHREIYLSNAQRTEKSKLKTILRYQVEEK,not soluble
7,MKHLPQLEGVSVGLEGEAVSLFWGEIKEEERQEIYECAKALVPWRKGPFWVGDFLIDSEWVSAKKYALLEPHFDLCNKDVADIGCNNGYYMFRMWGQKPKSLTGFDPSPLCRTQFDFINHFIQAPIRFELLGVEHLEGYGKLFDVIFCLGVLYHRSDPIQTLKSLYKGLAKGGELLLDTLMIEGEEEVALTPKDRYAKMSNVYFIPTFKALSHWLHRAGFERVEKLEIAKTGLDEQRKTEWINSQSLEDFLDPCSHDRTIEGYPAPRRIYVKAYKGA,not soluble
8,MKHSGYLWAIGKNVWKRWKKRFFVLVQVSQYTFAMCSYREKKAEPQELLQLDGYTVDYTDPQPGLEGGRAFFNAVKEGDTVIFASDDEQDRILWVQAMYRATGQSHKPVPPTQ,soluble
9,MKHTLPDLPFDYADLEPVISHEIMQLHHQKHHATYVNNLNQIEEKLHEAVSKGNLKEAIALQPALKFNGGGHINHSIFWTNLAKDGGEPSKELMDTIKRDFGSLDNLQKRLSDITIAVQGSGWGWLGYCKKDKILKIATCANQDPLEGMVPLFGIDVWEHAYYLQYKNVRPDYVHAIWKIANWKNISERFANARQ,soluble
10,MKIALIGATGMAGSRILEELVSRGHYVKALARDTHKVADTERVMAVDIDLNDHDALVEALRGQDAVISAVRFHGLDANALFNAIHDSKVKRYLVVGGAGSLHVPHQNTRVLDSEDFPEAYKPEAEAAAHFLDKLKEKDDLDWTFISPSAEFGPGKRTGEFRLGKDELLVGEEGSKISAEDFAVALADELEHNNHIQQRFTVGYLEHHHHHH,not soluble
11,MKIAMLGSLGNINRIVVPKLVQAGHDVTVISTSPKRQASIEAIGAHAAIGTMTDVDFLSTTFTDKDVVYLMLSGGIGDDPFEGAVAQAKIWKQAIENAGVTNVVNLSSIGADADEVAGSLHAYNLIEHELRQLDGVNLAFVRPTGFYANLFGNLATIKAEHKIYSSTPAASAQKYVAPEDIASVVYPLIDHTPAGITVKYAFSDTFTGDQFVADLRDALNMPDLQWVQISDEQYQANLTNHGVPVKIAASLVQTSRYQREPEGLYADLNASDTSAGQVKLADFVRTFVVAYNSEGGYQSHTIAD,not soluble
12,MKIDTNFLCDLWMALFQFSNDENINEKECTALVDIMSLVEKVLVLKLQDDVPNIVKILAVLTDFGDSELPHSMDSLLRAYEPDLDNPIKKVA,not soluble
13,MKIGIFDSGAGGMTVLKAIREAYPNVDVVYLGDTARVPYGIRSKETIVRYSKECANFLKDKGVDLLVVACNTASAYALEELKREFPFPVFGVIEPGVKEALRKSKTKRIGVIGTQATIKSGAYQEALKRAGAEVYSKACPLFVPLVEEGMIEGEIPKKVVEHYLKDFKGKVDTLILGCTHYPLLKREIQNFLEGVNVIDSSRATAKSLKDFVKNEGSGSLELYFTDRSQNLERLIKLILGEEVEPKITSEVFVL,soluble
14,MKIGLFYGSSTCYTEMTAEKIRAILGEELVDIHNVKESPLTLMSDYDLLLLGISTWDFGEIQEDWSAVWDHIGGVSLKNKYVALFGLGDQEGYGEWYLDAMGLLHDQIKKSGANLLGYWPNQGYHFEASKALTEDGSHFVGLALDEDSQYDLSDERIATWVEQVLTEYHDAI,not soluble
15,MKIKPVKVESIENPKRFLNSRLLTKIEVEEAIEKALKQLYINIDYFGEEYPTPATFNNIYKVMDNTEWTNGFWTGCLWLAYEYNQDKKLKNIAHKNVLSFLNRINNRIALDHHDLGFLYTPSCTAEYRINGDVKALEATIKAADKLMERYQEKGGFIQAWGELGYKEHYRLIIDCLLNIQLLFFAYEQTGDEKYRQVAVNHFYASANNVVRDDSSAFHTFYFDPETGEPLKGVTRQGYSDESSWARGQAWGIYGIPLSYRKMKDYQQIILFKGMTNYFLNRLPEDKVSYWDLIFTDGSGQPRDTSATATAVCGIHEMLKYLPEVDPDKETYKYAMHTMLRSLIEQYSNNELIAGRPLLLHGVYSWHSGKGVDEGNIWGDYYYLEALIRFYKDWELYW,soluble
16,MKILAIINPISGIGSKSNIPSLIADVFAHDPHELFITYSQRAGHARELAAQAVEKHYDCVIAVGGDGTVNEIAQSLRYTDVVLGIVPKGSGNGLARALKLPLTVGKALEVIRAGHVRTIDCCEADSRPFFCTCGLGFDAEVSKKFAQAGSRGPITYARTMIESYLQNEPKEYKLTIDGKSFEEKAFLVTCANAPQYGNNAYIAPLADLEDGKMDVVIIRPFNPLEAPQLALQLFTKRINSNSNLDTYKAENLIIERETEGVMHLDGDPVMFGKRIEIRTYGRSLKVFATETYT,not soluble
17,MKIQDYTKEMVDEKSFIDMAYTLLNDKQTTMNLYDIIDEFKSLGGYEYEDIENRIVQFYTDLNTDGRFLNVGENLWGLRDWYSVDDIEEKIAPTIQKFDILDDEDEEDQNLKLLGDDDADEDDDIPAQTDDQETLDESDNDEDDVEMNEADIVIDEDEDEDIAEGEEEAFEDAEDFND,not soluble
18,MKISIENIGKIKSTSILLDGFTVIAGENDSGKSTVGKIVYSIIQAFSIYPQFRKEKIRRKTSHSLRFFITELRRNFDLTKHDSLRQMMSFSFVNHIMADPDDALYEIRGVLDKLEESYPEKLETLIKLKSRLYGIQREIDSLSESDDIFESITDLMQSEFGGEIDRKQDSRPPSFEINDGETTVISAKFSDGIITDGIYSGGLGLGLGDATYIDGASILQYAHLINLNDSDPRLPFHITDLARKLISPTLVRGGSSNLADIYKGRLVFDETQNSFYFDKGGYRVCLNNIASGIKNIGVLDLLVKKGVICDGSLLVLDEPEINLHPKWQTQLAKIICELHQAGVYILLTTHSPYMIEALHYYANVSGIKSNFYLACKSIANPDDVDFIDLSMNVGAIIEDLAQPLWDIVEDNNEFLEHHHHHH,soluble
19,MKISPSRQVKGEIEIIPVSGFRGIGKFIDVPWRLYADDPLWVPPLRLERRLHLSRFNPYFRHAQWQGWIACRDNQPVGRISAQIDELYQQRYGTDTGHFGMLESIQDEAVFSRLIQVAESWLVERGVRQISGPFNFSINQECGLLVQGFDTPPVFMMPYSPEWYTSLLEQNGYQPCKDLLAYWLVTDFDPPPAMQAIDRKYRHQIRIRPLQRNRFNEEIETMRDIFNDAWSDNWGFVPFTQEEFAELGSSLRWLVPDEFIQIAEIDGRPVAFMAVLPNLNEVLPALNGKLLPLGWLHLINKLKSASITTGRVPLMGVRKQFHHTLVGIALAFKVIDAPRKMVKSRGIGHVELSWILEDNQSMRAILEKIGGREYKRYRIYDKTLA,not soluble
20,MKITVIGAGNVGATTAFRLAEKQLARELVLLDVVEGIPQGKALDMYESGPVGLFDTKVTGSNDYADTANSDIVIITAGLPRKPGMTREDLLMKNAGIVKEVTDNIMKHSKNPIIIVVSNPLDIMTHVAWVRSGLPKERVIGMAGVLDAARFRSFIAMELGVSMQDINACVLGGHGDAMVPVVKYTTVAGIPISDLLPAETIDKLVERTRNGGAEIVEHLKQGSAFYAPASSVVEMVESIVLDRKRVLPCAVGLEGQYGIDKTFVGVPVKLGRNGVEQIYEINLDQADLDLLQKSAKIVDENCKMLESTIG,soluble
21,MKIVAIGAIPFSIPYTKPLRFASGEVHAAEHVLVRVHTDDGIVGVAEAPPRPFTYGETQTGIVAVIEQYFAPALIGLTLTEREVAHTRMARTVGNPTAKAAIDMAMWDALGQSLRLSVSEMLGGYTDRMRVSHMLGFDDPVKMVAEAERIRETYGINTFKVKVGRRPVQLDTAVVRALRERFGDAIELYVDGNRGWSAAESLRAMREMADLDLLFAEELCPADDVLSRRRLVGQLDMPFIADESVPTPADVTREVLGGSATAISIKTARTGFTGSTRVHHLAEGLGLDMVMGNQIDGQIGTACTVSFGTAFERTSRHAGELSNFLDMSDDLLTVPLQISDGQLHRRPGPGLGIEIDPDKLAHYRTDN,soluble
22,MKIVILAPTITPIVSYGGLGDVMRDLPKFLKKGNEVVVLTLNHYNRYFTLPYEDIKKITVIYKGAKITFDVLRTKHPTTGVDLIVFSNESVNNLNVWDPIKYEIFADLVITYLDEVKDIDVVSGHDWMCGLAIAKCNDILDLPTTLTIHNEAFKGEMIEYKGEVMTFLELGIKYADAVNTVSPSHAEEIKNYPYIKKYLNNKPFCGILNGIDIDEYDPMKIIERMCNLSNNKLDPRNYAYISPYSAEDSHNIKPKIKYSWFYRGGVYEYVEDWNKIDKGISATDVEVHGGVDGDIETPLIGFVGRATHQKGFNTMFEAIPELLEKHDIRFVFLTKGDRDIEERLKNLANEHDGRILALIGYSLPLSSLVFAGSDWIIMPSYWEPCGLVQMEAMAYCTPVIATETGGLKDTIIPLHPNPYEHPNFDKATGVLFKVPDKVGFMWGVEHALNWTFYKLNEICMFMQYIRYKCPKHPYDENSPLSMMMKNCYYHVFRNLSWQNSPSIRKYKGLFGGAIYNHYLQP,soluble
